Laboratory results published in patent publication US20250327097A1, “ORGANISMS PRODUCING LESS CROTONIC ACID” (Global Bioenergies, priority 2021, published 2025).
Substitutions are numbered along the chain they refer to. Names and notes keep the numbering of the source.

B1: L223Y-I283T-N285P-N287T-Q290E-S322T-N388M-K394R-K423G-C430A-i430aG-L432F-L434W-S436N-dG462 (protein)
chain: MFLKSLREQINLLKRQGDLRIINRPVDSYLEAAAIIRRSTETKAPVPLMTNIKGYPGCSIVGGLAALSSNPEYPLSRVAMSLGLSTTASAQSIVQYLIDGLKKTPYLPVEIDSNSAPCKQNILRGEDASLAHFPIPQVHQHDGNRYVNTWGVFIVESPDGQWCNWSIQRVQYLNDRQMIALVFPSQHISDIWEEWVKIGKPMPYALVQGCEPIVPYIAGLPLYERNVNEAEYIGALYGKGIEVVKCETHDLRVPASSEVVIEGYFAITREGVEGPFGEFAGYTPPETSLEPILSITAISWQDDPIWPVVAEGKPVDEYHTCTGIGDAAAIQNVLLTANLPVSFVWVPLYSACHLMIVSINRHWRQTHPDLTSEQLTKKVGDVIHQTRMSIKLPRIVVLDDDVDPADTESLLWALATRIHPERGRYFYESAIFPWLNCYSEEERHNRKGKRVIIDALLPENHGAISSFDYAYPDDIKQRVLMHWETDFSHD
B2: L223Y-I283T-N285P-N287T-Q290E-S322T-N388M-K394R-K423G-C430A-i430aL-L432F-L434W-S436N-dG462 (protein)
chain: B1 chain
B3: L223Y-I283T-N285P-N287T-Q290E-S322T-N388M-K394R-K423G-C430A-i430aN-L432F-L434W-S436N-dG462 (protein)
chain: B1 chain
B4: L223Y-I283T-N285P-N287T-Q290E-S322T-N388M-K394R-K423G-C430A-L432F-L434W-S436N-i448aS-dG462 (protein)
chain: B1 chain
B5: L223Y-I283T-N285P-N287T-Q290E-S322T-N388M-K394R-i429aN-C430A-L432F-L434W-S436N-dG462 (protein)
chain: B1 chain with G423K
B6: L223Y-I283T-N285P-N287T-Q290E-S322T-N388M-K394R-C430A-i430aG-L432F-L434W-S436N-dG462 (protein)
chain: B1 chain with G423K
B7: I283T-N285P-N287T-Q290E-S322T-N388M-K394R-C430A-i430aG-L432F-L434W-S436N-C437L-dG462 (protein)
chain: B1 chain with Y223L, G423K, C437L
B8: L223Y-I283T-N285P-N287T-Q290E-S322T-N388M-K394R-C430A-i430aG-L432F-L434W-S436N-C437L-dG462 (protein)
chain: B1 chain with G423K, C437L
B9: L223Y-I283T-N285P-N287T-Q290E-S322T-N388M-K394R-C430A-i430aN-L432F-L434W-S436N-dG462 (protein)
chain: B1 chain with G423K
B10: L223Y-I283T-N285P-N287T-Q290E-S322T-N388M-K394R-C430A-L432F-L434W-S436N-C437L-dG462 (protein)
chain: B1 chain with G423K, C437L
B11: L223Y-I283T-N285P-N287T-Q290E-S322T-N388M-K394R-C430A-i430aL-L432F-L434W-S436N-dG462 (protein)
chain: B1 chain with G423K
B12: I283T-N285P-N287T-Q290E-S322T-N388M-K394R-C430A-i430aG-L432F-L434W-S436N-V451S-dG462 (protein)
chain: B1 chain with Y223L, G423K, V451S
B13: H141C-I283T-N285P-N287T-Q290E-S322T-N388M-K394R-C430A-i430aG-L432F-L434W-S436N-dG462 (protein)
chain: B1 chain with H141C, Y223L, G423K
B14: L222V-I283T-N285P-N287T-Q290E-S322T-N388M-K394R-C430A-i430aG-L432F-L434W-S436N-dG462 (protein)
chain: B1 chain with L222V, Y223L, G423K
B15: I283T-N285P-N287T-Q290E-S322T-I330V-N388M-K394R-C430A-i430aG-L432F-L434W-S436N-dG462 (protein)
chain: B1 chain with Y223L, I330V, G423K
B16: I283T-N285P-N287T-Q290E-S322T-N388M-S389H-K394R-C430A-i430aG-L432F-L434W-S436N-dG462 (protein)
chain: B1 chain with Y223L, S389H, G423K
B17: H141C-I283T-N285P-N287T-Q290E-S322T-N388M-S389H-K394R-C430A-i430aG-L432F-L434W-S436N-dG462 (protein)
chain: B1 chain with H141C, Y223L, S389H, G423K
B18: I283T-N285P-N287T-Q290E-S322T-I330V-N388M-S389H-K394R-C430A-i430aG-L432F-L434W-S436N-dG462 (protein)
chain: B1 chain with Y223L, I330V, S389H, G423K
B19: H141C-I283T-N285P-N287T-Q290E-S322T-I330V-N388M-S389H-K394R-C430A-i430aG-L432F-L434W-S436N-dG462 (protein)
chain: B1 chain with H141C, Y223L, I330V, S389H, G423K
B20: I283T-N285P-N287T-Q290E-S322T-I330V-N388M-S389H-K394R-C430A-i430aG-L432F-L434W-S436N-V451S-dG462 (protein)
chain: B1 chain with Y223L, I330V, S389H, G423K, V451S
B21: E224P-I283T-N285P-N287T-Q290E-S322T-N388M-K394R-C430A-i430aG-L432F-L434W-S436N-dG462 (protein)
chain: B1 chain with Y223L, E224P, G423K
B22: L222V-E224P-I283T-N285P-N287T-Q290E-S322T-N388M-K394R-C430A-i430aG-L432F-L434W-S436N-dG462 (protein)
chain: B1 chain with L222V, Y223L, E224P, G423K
B23: I283T-N285P-N287T-Q290E-S322T-N388M-S389H-K394R-C430A-i430aG-L432F-L434W-S436N-I453L-dG462 (protein)
chain: B1 chain with Y223L, S389H, G423K, I453L
B24: E224A-I283T-N285P-N287T-Q290E-S322T-N388M-S389H-K394R-C430A-i430aG-L432F-L434W-S436N-dG462 (protein)
chain: B1 chain with Y223L, E224A, S389H, G423K
B25: E224P-I283T-N285P-N287T-Q290E-S322T-N388M-S389H-K394R-C430A-i430aG-L432F-L434W-S436N-dG462 (protein)
chain: B1 chain with Y223L, E224P, S389H, G423K
B26: I283T-P284D-i284aP-N287P-S322T-Q365I-N388M-E421V-C430N-L432F-L434W-S436N-H461T-dG462-A463T (protein)
chain: MFLKSLREQINLLKRQGDLRIINRPVDSYLEAAAIIRRSTETKAPVPLMTNIKGYPGCSIVGGLAALSSNPEYPLSRVAMSLGLSTTASAQSIVQYLIDGLKKTPYLPVEIDSNSAPCKQNILRGEDASLAHFPIPQVHQHDGNRYVNTWGVFIVESPDGQWCNWSIQRVQYLNDRQMIALVFPSQHISDIWEEWVKIGKPMPYALVQGCEPIVPYIAGLPLLERNVNEAEYIGALYGKGIEVVKCETHDLRVPASSEVVIEGYFAITREGVEGPFGEFAGYTDNEPSLQPILSITAISWQDDPIWPVVAEGKPVDEYHTCTGIGDAAAIQNVLLTANLPVSFVWVPLYSACHLMIVSINRHWRITHPDLTSEQLTKKVGDVIHQTRMSIKLPKIVVLDDDVDPADTESLLWALATRIHPVRKRYFYESNIFPWLNCYSEEERHNRKGKRVIIDALLPENTGTISSFDYAYPDDIKQRVLMHWETDFSHD
B27: I283T-P284D-i284aP-N287P-S322T-Q385G-N388M-E421V-C430N-L432F-L434W-S436N-H461T-dG462-A463T (protein)
chain: B26 chain with I365Q, Q385G
B28: I283T-P284D-i284aP-N287P-S322T-Q385L-N388M-E421V-C430N-L432F-L434W-S436N-H461T-dG462-A463T (protein)
chain: B26 chain with I365Q, Q385L
B29: I283T-P284D-i284aP-N287P-S322T-Q385S-N388M-E421V-C430N-L432F-L434W-S436N-H461T-dG462-A463T (protein)
chain: B26 chain with I365Q, Q385S

These molecules were tested on 3-methylcrotonic acid.
Format: biochemical, Yersinia frederiksenii
Set-up: key: “+” representing a low increase in activity; “++++” representing a high increase in activity

Molecule	Activity relative to WT
B1	++++
B2	++++
B3	++++
B4	++++
B5	++++
B6	++++
B7	++++
B8	++++
B9	++++
B10	++++
B11	++++
B12	++++
B13	++++
B14	++++
B15	++++
B16	++++
B17	++++
B18	++++
B19	++++
B20	++++
B21	++++
B22	++++
B23	++++
B24	++++
B25	++++
B26	++++
B27	++++
B28	++++
B29	++++
